Results: patent publication US20260015426A1 (23ANDME, published 2026)

Assays:
[1] = biological target: T1, hu-M-IL1RAP construct, positions S21-T367 (extracellular domain of the membrane form of human IL1RAP) (human, UniProt Q9NPH3 21-367); test: SPR, Fab analyte, 25 C
T1 construct: Biotinylated when captured on the Biacore chip
T1 sequence: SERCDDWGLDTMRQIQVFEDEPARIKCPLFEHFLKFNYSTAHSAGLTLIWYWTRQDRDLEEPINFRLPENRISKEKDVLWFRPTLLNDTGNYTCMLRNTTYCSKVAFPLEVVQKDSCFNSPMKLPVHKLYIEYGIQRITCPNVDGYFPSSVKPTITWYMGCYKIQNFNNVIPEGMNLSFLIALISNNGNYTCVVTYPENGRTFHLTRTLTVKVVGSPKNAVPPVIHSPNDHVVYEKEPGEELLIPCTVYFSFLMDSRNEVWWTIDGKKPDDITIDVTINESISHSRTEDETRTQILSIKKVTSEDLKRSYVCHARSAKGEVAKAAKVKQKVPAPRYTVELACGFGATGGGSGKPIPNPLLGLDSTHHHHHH
Protocol: (§1) Surface plasmon resonance (SPR) analysis was used to determine binding affinity for hu-M-IL1RAP of the purified Fabs containing the selected single, double, and triple mutations in either the VL or VH regions using a BIACORE™ 8K instrument. […] For kinetics measurements, 5 nM biotinylated hu-M-IL1RAP was captured at 10 μL/min to achieve ˜50 response units in the second flow cell (FC2). FC1 was kept as a reference. […] The sensorgrams were recorded and subjected to reference and buffer subtraction before data analysis with the BIACORE® 8K Evaluation Software (version 1.1.1.7442). Association rates (kₒₙ) and dissociation rates (koff) were calculated using a simple one-to-one Langmuir binding model. The equilibrium dissociation constant (KD) was calculated as the ratio of koff/kₒₙ.

[2] = biological target: T1, hu-M-IL1RAP construct, positions …; test: SPR, Fab against parent Fab
[3] = biological target: T1, hu-M-IL1RAP construct, positions …; test: phage display selection of affinity maturation libraries + NGS; enrichment of the mutation R96A (VH)
Protocol: (§2) For the first panning round, plates and phage libraries were blocked in PBS buffer containing 0.05% TWEEN® 20 and 1% BSA for either 1 hour (plates) or 30 minutes (phage libraries). Plates were washed in Wash Buffer (PBS buffer containing 0.05% TWEEN® 20) and incubated with blocked phage libraries for 2 hours with shaking. Non-specifically bound phage was removed by washing vigorously with Wash Buffer. […] Non-specific interactions were inhibited by adding 1/10th v/v 1% BSA.
(§3) For panning rounds three through five, phage libraries were incubated with blocking buffer (PBS buffer with 1% BSA in round 3 and SUPERBLOCK™ PBS buffer (Pierce) and 0.05% TWEEN® 20 in rounds 4 and 5) for 30 minutes and then incubated with decreasing concentrations of biotinylated hu-M-IL1RAP for 1 hour. Hu-M-IL1RAP-bound phage were captured on blocked neutravidin-coated plates, washed extensively with Wash Buffer, and eluted and neutralized in the same manner as in rounds 1 and 2. In the final selection round, 1000× non-biotinylated hu-M-IL1RAP was added as a competitor to increase the selection stringency.
(§4) To extract sequences from affinity maturation libraries using NGS, phagemid double stranded DNA was isolated from E. coli XL-1 cells carrying phagemids from the initial phage library (unsorted libraries) and from the second and third rounds of solution selection (sorted libraries). […]

[4] = biological target: T1, hu-M-IL1RAP construct, positions …; test: SPR, Fab analyte, 37 C
Protocol: as §1

[5] = biological target: T1, hu-M-IL1RAP construct, positions …; test: phage display selection of affinity maturation libraries + NGS; enrichment of the mutation R96D (VH)
Protocol: as §2, §3, §4

[6] = biological target: T1, hu-M-IL1RAP construct, positions …; test: phage display selection of affinity maturation libraries + NGS; enrichment of the mutation F29Q (VH)
Protocol: as §2, §3, §4

[7] = biological target: T1, hu-M-IL1RAP construct, positions …; test: phage display selection of affinity maturation libraries + NGS; enrichment of the mutation W92I (VL)
Protocol: as §2, §3, §4

[8] = biological target: T1, hu-M-IL1RAP construct, positions …; test: phage display selection of affinity maturation libraries + NGS; enrichment of the mutation T94V (VL)
Protocol: as §2, §3, §4

[9] = biological target: T1, hu-M-IL1RAP construct, positions …; test: phage display selection of affinity maturation libraries + NGS; enrichment of the mutation R96Q (VH)
Protocol: as §2, §3, §4

[10] = biological target: T1, hu-M-IL1RAP construct, positions …; test: phage display selection of affinity maturation libraries + NGS; enrichment of the mutation V51S (VH)
Protocol: as §2, §3, §4

[11] = biological target: T2, human IL1RAP (hu-IL1RAP) on human cells (human, UniProt Q9NPH3 21-570); test: cell-based or functional assay
T2 sequence: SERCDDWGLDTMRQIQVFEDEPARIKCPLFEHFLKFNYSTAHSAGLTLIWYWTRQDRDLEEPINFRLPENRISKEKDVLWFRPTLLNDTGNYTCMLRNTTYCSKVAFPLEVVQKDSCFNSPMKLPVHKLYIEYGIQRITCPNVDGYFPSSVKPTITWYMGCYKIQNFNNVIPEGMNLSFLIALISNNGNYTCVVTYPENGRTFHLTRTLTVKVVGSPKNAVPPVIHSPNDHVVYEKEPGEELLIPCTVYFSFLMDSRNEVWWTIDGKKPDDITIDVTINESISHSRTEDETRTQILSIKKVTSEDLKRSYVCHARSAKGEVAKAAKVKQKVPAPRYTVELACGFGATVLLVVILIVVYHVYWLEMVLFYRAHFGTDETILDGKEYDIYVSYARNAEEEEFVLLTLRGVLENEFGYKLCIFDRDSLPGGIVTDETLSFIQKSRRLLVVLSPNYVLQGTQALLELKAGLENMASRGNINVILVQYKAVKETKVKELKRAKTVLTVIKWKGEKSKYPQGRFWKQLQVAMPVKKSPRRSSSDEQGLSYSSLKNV

[12] = biological target: T1, hu-M-IL1RAP construct, positions …; test: phage display selection of affinity maturation libraries + NGS; enrichment of the mutation A51Y (VL)
Protocol: as §2, §3, §4

[13] = biological target: T1, hu-M-IL1RAP construct, positions …; test: phage display selection of affinity maturation libraries + NGS; enrichment of the mutation T94I (VL)
Protocol: as §2, §3, §4

| Binder | Kd [1] [nM] | koff [1] [s⁻¹] | kon [1] [M⁻¹ s⁻¹] | Fold Improvement in KD @ 25° C. [2] [fold] | Kd [4] [nM] | koff [4] [s⁻¹] | kon [4] [M⁻¹ s⁻¹] | Fold Improvement in KD @ 37° C. [2] [fold] | other results |
| --- | --- | --- | --- | --- | --- | --- | --- | --- | --- |
| H1 Fab (VH R96A) (Fab, V domains shown, Fab with 8xHis tag) VH: EVQLVESGGGLVQPGGSLRLSCAASGFTFSNYAMSWVRQAPGKGLEWVATVTEGGDYNYYLDDVKGRFTISRDNAKNSLYLQMNSLRAEDTAVYYCARDAWPYFFDYWGQGTLVTVSS VL: DIQMTQSPSSLSASVGDRVTITCRASENIYSNLAWYQQKPGKSPKLLVYGAKNLADGVPSRFSGSGSGTDYTLTISSLQPEDFATYYCQHFWTTPRTFGGGTKVEIK | 0.125 | 0.000218 | 1.75e+06 | 2.7 | – | – | – | – | Enrichment ratio (at the highest selection stringency) [3]: 4.55 ratio |
| H2 Fab (VH R96D) (Fab, V domains shown, Fab with 8xHis tag) VH: EVQLVESGGGLVQPGGSLRLSCAASGFTFSNYAMSWVRQAPGKGLEWVATVTEGGDYNYYLDDVKGRFTISRDNAKNSLYLQMNSLRAEDTAVYYCARDDWPYFFDYWGQGTLVTVSS VL: DIQMTQSPSSLSASVGDRVTITCRASENIYSNLAWYQQKPGKSPKLLVYGAKNLADGVPSRFSGSGSGTDYTLTISSLQPEDFATYYCQHFWTTPRTFGGGTKVEIK | 0.0422 | 0.000219 | 5.19e+06 | 7.99 | 0.112 | 0.000729 | 6.5e+06 | 2.39 | Enrichment ratio (at the highest selection stringency) [5]: 4.06 ratio |
| H4 Fab (VH F29Q) (Fab, V domains shown, Fab with 8xHis tag) VH: EVQLVESGGGLVQPGGSLRLSCAASGFTQSNYAMSWVRQAPGKGLEWVATVTEGGDYNYYLDDVKGRFTISRDNAKNSLYLQMNSLRAEDTAVYYCARDRWPYFFDYWGQGTLVTVSS VL: DIQMTQSPSSLSASVGDRVTITCRASENIYSNLAWYQQKPGKSPKLLVYGAKNLADGVPSRFSGSGSGTDYTLTISSLQPEDFATYYCQHFWTTPRTFGGGTKVEIK | 0.0421 | 0.000231 | 5.49e+06 | 8 | – | – | – | – | Enrichment ratio (at the highest selection stringency) [6]: 3.02 ratio |
| K12 Fab (VL W92I) (Fab, V domains shown, Fab with 8xHis tag) VH: EVQLVESGGGLVQPGGSLRLSCAASGFTFSNYAMSWVRQAPGKGLEWVATVTEGGDYNYYLDDVKGRFTISRDNAKNSLYLQMNSLRAEDTAVYYCARDRWPYFFDYWGQGTLVTVSS VL: DIQMTQSPSSLSASVGDRVTITCRASENIYSNLAWYQQKPGKSPKLLVYGAKNLADGVPSRFSGSGSGTDYTLTISSLQPEDFATYYCQHFITTPRTFGGGTKVEIK | 0.0411 | 0.00023 | 5.58e+06 | 8.2 | – | – | – | – | Enrichment ratio (at the highest selection stringency) [7]: 3.36 ratio |
| K15 Fab (VL T94V) (Fab, V domains shown, Fab with 8xHis tag) VH: EVQLVESGGGLVQPGGSLRLSCAASGFTFSNYAMSWVRQAPGKGLEWVATVTEGGDYNYYLDDVKGRFTISRDNAKNSLYLQMNSLRAEDTAVYYCARDRWPYFFDYWGQGTLVTVSS VL: DIQMTQSPSSLSASVGDRVTITCRASENIYSNLAWYQQKPGKSPKLLVYGAKNLADGVPSRFSGSGSGTDYTLTISSLQPEDFATYYCQHFWTVPRTFGGGTKVEIK | 0.12 | 0.00068 | 5.67e+06 | 2.81 | – | – | – | – | Enrichment ratio (at the highest selection stringency) [8]: 0.987 ratio |
| H6 Fab (VH R96Q) (Fab, V domains shown, Fab with 8xHis tag) VH: EVQLVESGGGLVQPGGSLRLSCAASGFTFSNYAMSWVRQAPGKGLEWVATVTEGGDYNYYLDDVKGRFTISRDNAKNSLYLQMNSLRAEDTAVYYCARDQWPYFFDYWGQGTLVTVSS VL: DIQMTQSPSSLSASVGDRVTITCRASENIYSNLAWYQQKPGKSPKLLVYGAKNLADGVPSRFSGSGSGTDYTLTISSLQPEDFATYYCQHFWTTPRTFGGGTKVEIK | 0.0468 | 0.00025 | 5.34e+06 | 7.2 | 0.188 | 0.000708 | 3.76e+06 | 1.43 | Enrichment ratio (at the highest selection stringency) [9]: 3.8 ratio |
| H3 Fab (VH V51S) (Fab, V domains shown, Fab with 8xHis tag) VH: EVQLVESGGGLVQPGGSLRLSCAASGFTFSNYAMSWVRQAPGKGLEWVATSTEGGDYNYYLDDVKGRFTISRDNAKNSLYLQMNSLRAEDTAVYYCARDRWPYFFDYWGQGTLVTVSS VL: DIQMTQSPSSLSASVGDRVTITCRASENIYSNLAWYQQKPGKSPKLLVYGAKNLADGVPSRFSGSGSGTDYTLTISSLQPEDFATYYCQHFWTTPRTFGGGTKVEIK | 0.0396 | 0.000208 | 5.26e+06 | 8.51 | 0.125 | 0.000602 | 4.82e+06 | 2.14 | Enrichment ratio (at the highest selection stringency) [10]: 3.42 ratio |
| K10 Fab (VL A51Y) (Fab, V domains shown, Fab with 8xHis tag) VH: EVQLVESGGGLVQPGGSLRLSCAASGFTFSNYAMSWVRQAPGKGLEWVATVTEGGDYNYYLDDVKGRFTISRDNAKNSLYLQMNSLRAEDTAVYYCARDRWPYFFDYWGQGTLVTVSS VL: DIQMTQSPSSLSASVGDRVTITCRASENIYSNLAWYQQKPGKSPKLLVYGYKNLADGVPSRFSGSGSGTDYTLTISSLQPEDFATYYCQHFWTTPRTFGGGTKVEIK | 0.00855 | 5.06e-05 | 5.92e+06 | 39.4 | 0.0298 | 0.000153 | 5.12e+06 | 8.99 | HEK-Blue, IL-1β, % inhibition at 100 nM (Fab) [11]: 100%; HEK-Blue, IL-1β, IC50 (Fab) [11]: 0.66 nM; HEK-Blue, IL-33, % inhibition at 100 nM (Fab) [11]: 98%; HEK-Blue, IL-33, IC50 (Fab) [11]: 3.26 nM; HEK-Blue, IL-36α, % inhibition at 100 nM (Fab) [11]: 100%; HEK-Blue, IL-36α, IC50 (Fab) [11]: 0.706 nM; Enrichment ratio (at the highest selection stringency) [12]: 2.95 ratio |
| K14 Fab (VL T94I) (Fab, V domains shown, Fab with 8xHis tag) VH: EVQLVESGGGLVQPGGSLRLSCAASGFTFSNYAMSWVRQAPGKGLEWVATVTEGGDYNYYLDDVKGRFTISRDNAKNSLYLQMNSLRAEDTAVYYCARDRWPYFFDYWGQGTLVTVSS VL: DIQMTQSPSSLSASVGDRVTITCRASENIYSNLAWYQQKPGKSPKLLVYGAKNLADGVPSRFSGSGSGTDYTLTISSLQPEDFATYYCQHFWTIPRTFGGGTKVEIK | 0.0913 | 0.000543 | 5.95e+06 | 3.69 | – | – | – | – | Enrichment ratio (at the highest selection stringency) [13]: 1.74 ratio |
